According to publication PMC10634658:
Each block holds one substance with its values, some of them ahead of it.

What was measured:
[1] = target: BLUF-α3 (PAC-BLUF domain with the α3-helix of OaPAC, residues 1-126) (Oscillatoria acuminata); test: transient grating (diffusion coefficient); 80 μM protein, 23 °C, excitation at 462 nm; diffusion coefficients of reactant (dark) and photoproduct (light) compared with those expected for monomer and dimer
[2] = target: BLUF-α3 (PAC-BLUF domain with the α3-helix of OaPAC, residues 1-126) (Oscillatoria acuminata); test: SEC; Superdex 200 Increase 10/300, PBS, room temperature, 50 μM, 100 μl injected; dark state and light state (column irradiated with a Xe lamp); mass calibrated with a gel filtration standard
[3] = target: PAC-BLUF (BLUF domain of OaPAC, residues 1-102) (Oscillatoria acuminata); test: transient grating (diffusion coefficient); 80 μM protein, 23 °C, excitation at 462 nm; diffusion coefficients of reactant (dark) and photoproduct (light) compared with those expected for monomer and dimer
[4] = target: PAC-BLUF (BLUF domain of OaPAC, residues 1-102) (Oscillatoria acuminata); test: SEC; Superdex 200 Increase 10/300, PBS, room temperature, 50 μM, 100 μl injected; dark state and light state (column irradiated with a Xe lamp); mass calibrated with a gel filtration standard
[5] = target: full-length OaPAC (photoactivated adenylate cyclase from Oscillatoria acuminata) (Oscillatoria acuminata); test: transient grating (diffusion coefficient); 80 μM protein, 23 °C, excitation at 462 nm; diffusion coefficients of reactant (dark) and photoproduct (light) compared with those expected for monomer and dimer
[6] = target: full-length OaPAC (photoactivated adenylate cyclase from Oscillatoria acuminata) (Oscillatoria acuminata); test: SEC; Superdex 200 Increase 10/300, PBS, room temperature, 50 μM, 100 μl injected; dark state and light state (column irradiated with a Xe lamp); mass calibrated with a gel filtration standard
[7] = target: full-length OaPAC (photoactivated adenylate cyclase from Oscillatoria acuminata) (Oscillatoria acuminata); test: SAXS; Photon Factory BL-15A2, flowing sample, dark state and light state (450 nm diode laser); molecular mass from the Guinier plot (80 kDa)

stoichiometry N [1]: 2
stoichiometry N [2]: 2
Substance: BLUF-α3 (PAC-BLUF domain with the α3-helix of OaPAC, residues 1-126) (domain or fragment)

stoichiometry N [3]: 2
stoichiometry N [4]: 2
Substance: PAC-BLUF (BLUF domain of OaPAC, residues 1-102) (domain or fragment)

stoichiometry N [5]: 2
stoichiometry N [6]: 2
stoichiometry N [7]: 2
Substance: full-length OaPAC (photoactivated adenylate cyclase from Oscillatoria acuminata) (enzyme)
